Data: the supplement of paper PMC10567573

B1: CDS2 (parent)
chain: IHSIALSTFASLIGPFGGFFASGF
B2: CDC25B (parent)
chain: ELKTFRLKTRSWAGERSRRELCSR

Variants of: B1
Test: protein stability index of a GFP-peptide fusion (GPS, HEK-293T) (PSI 1-6); higher = more stable
Conditions: c terminus: a fixed tail appended
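Note: lentivirally expressed fusions sorted by FACS into six bins by GFP to DsRed ratio, PSI derived from sequencing read proportions per bin multiplied by bin number.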

Protein stability index: each site, then its substitutions
H2: W 2, I 2.41, T 3.98, C 4.54, A 2.61, G 3.52, P 1.95, D 2.57, M 2.79, Q 2.43, Y 3.65, S 2.03, K 3.27, E 1.8
I4: Y 2.14, E 2.14, L 1.57, R 3.04, M 2.86, H 2.91, S 3.51, W 2.65, A 2.44, T 3.82, P 3.8
L6: C 2.06, E 4.38, A 2.63, D 3.13
S3: Q 2.4, P 2.89, Y 2.06, C 4.47, T 2.8, I 3.44, F 3.44, D 3.74, L 4.15, N 4.17, G 2.49, K 3.55, V 3.02, E 3.44
A5: H 2.81, I 3.04, C 3.88, V 1.84, E 3.98, Y 2.88, M 2.14, S 3.12, L 2.15, N 4.35, G 2.93, D 2.51, W 2.77, Q 3.47, P 2.54, R 3.68, T 2.36, F 3.17, K 3.47
I1: Y 3.05, E 4.34, T 3.44, N 2.63, P 3.96, W 3.6, D 1.79, L 2.63, S 2.57, H 2.21, V 2.61, G 2.84, A 3.5, K 2.65, F 2.15, Q 1.48, C 3.03

Variants of: B2
Test: as above
Conditions: c terminus: a fixed tail appended

Protein stability index, by site and new letter:
A13: K 3.31, Q 3.01, D 3.98, M 2.92, C 2.94, V 2.44, P 3.84, W 2.2, E 3.23, I 2.22, T 3.1, L 2.62, N 3.81, F 1.88, R 3.49, H 3.81, Y 2.22, S 2.85, G 3.41
S23: H 3.13, M 3.26, E 3.53, Y 3.83, W 2.69, C 3.05, G 3.44, K 3.62, R 2.87, N 3.8, I 2.95, A 3.02, T 3.89, L 3.35, D 4.21, Q 3.39, F 3.03, V 2.25, P 3.26
G14: H 2.65, V 2.19, R 2.73, T 3.53, A 2.42, W 3.23, L 2.61, K 2.7, D 3.62, Q 2.58, I 2.67, E 3.16, F 3.15, P 2.25, C 2.5, N 2.48, Y 2.05, M 2.66, S 2.39
S17: D 3.46, Q 3.35, T 3.33, R 2.63, V 2.36, L 2.87, P 3.35, Y 3.27, E 4.03, M 2.52, N 2.93, F 2.24, H 3.21, A 3.4, W 2.16, G 2.7, C 2.69, I 2.32, K 2.77
R18: V 3.6, D 3.4, E 3.52, I 3.04, F 2.62, C 2.23, W 2.84, N 3.18, G 2.95, Q 4.01, K 3.36, H 3.33, T 3.38, P 3.64, M 3.36, S 3.85, Y 2.58, L 3.23, A 3.85
C22: P 3.01, Q 3.26, W 2.89, L 2.79, G 4.06, R 4.04, V 3.54, T 3.48, I 3.33, S 3.25, Y 2.6, A 3.36, D 3.27, M 2.96, N 4.04, F 3.01, E 3.65, H 3.42, K 3.57
R16: F 2.6, Y 3.61, L 2.91, A 3.64, N 3.34, I 2.53, P 3.67, G 3.74, D 3.83, M 2.97, E 3.64, Q 3.62, W 2.55, V 1.93, T 3.87, H 3.46, K 2.81, C 2.97, S 3.9
W12: G 3.54, H 3.64, L 3.41, C 2.87, Q 3.49, E 4.2, P 3.55, T 3.38, F 3.34, R 4.08, I 3.3, Y 3.66, K 3.94, A 3.16, N 3.45, S 3.54, V 3.45, D 4.12, M 2.43
S11: V 2.11, W 2.57, P 2.59, M 2.42, R 2.4, N 3.2, Q 2.58, T 3.1
R19: K 3.26, L 3.2, D 2.88, Q 3.45, Y 3.51, T 2.57, C 2.25, H 3.13, A 4.2, W 2.02, E 3.66, F 2.49, P 2.98, N 3.38, V 2.74, M 3, I 2.57, S 3.28, G 3.46
E20: Q 3.53, A 3.25, N 3.42, L 2.42, Y 2.69, I 2.66, R 2.78, V 2.9, T 2.88, S 2.92, M 3.25, C 2.72, H 3.52, P 3.08, G 2.65, D 2.98, W 2.57, F 2.52, K 3.47
R24: Q 3.23, H 3.3, A 2.72, N 3.38, T 2.73, I 2.86, E 3.39, C 2.9, M 2.34, L 3, S 3.28, G 2.59, V 2.7, W 2.58, Y 2.33, F 1.85, D 2.91, K 3.38, P 2.82
E15: Y 2.46, H 3.02, N 2.66, A 3.04, L 2.78, M 2.67, C 2.44, F 2.58, D 3.36, V 2.51, Q 3.06, S 2.96, I 2.75, R 3.06, W 2.4, G 2.68, K 3.3, P 3.2, T 2.98
L21: Q 3.15, E 3.6, G 3.75, W 2.55, H 3.31, Y 3.61, C 3.66, K 3.76, D 3.98, F 3.12, M 3.33, T 3.84, P 3.99, R 3.37, S 3.9, A 3.91, N 3.35, V 3.71, I 2.81
